According to the RNAGym collection of RNA variant scans (doi:10.7554/elife.90254):

B1: OR4K15 (parent)
chain: GUUAACGGUCAUAGGCCAUGGAAACUAGGAGCACCAUUUCGCUGCCAGUGAAGAAAUGAACAAAGAAAAUCUGGGCCAGGCAGGCAUCAAAAGAAAUAGUCUUGCGCUCAACCAGAAAGUCUGUAAUCAUUUUAAGGGUA

Variants of: B1
Experiment: self-cleavage, relative activity (ratio to wild type); higher = more cleavage; in vitro, sequencing; the parent is a self-cleaving ribozyme
In the case of A110G G137A, the self-cleavage is reported as 0.18. With U124A U139C the self-cleavage was 1.26. Work on A111G U120C yielded a self-cleavage of 0.01. Variant U120C A135C has a self-cleavage of 1.51. U122A A129G gave a self-cleavage of 1.38. A110C U131A showed a self-cleavage of 0.17. For U122C C128A, the self-cleavage was 0.38. A116G A125G gave a self-cleavage of 0.23. With A116C U127C the self-cleavage was 0.03. A110G A118G showed a self-cleavage of 0.08. With C113U U132A the self-cleavage was 0.06. For U120C G138U, the self-cleavage was 2.11. Variant A116G A140C has a self-cleavage of 0.63. With A114G A134G the self-cleavage was 0.63. A110U U139C gave a self-cleavage of 0.59. Variant U122A U132C has a self-cleavage of 2.13. A117U A126G showed a self-cleavage of 0.89. A110U U124A showed a self-cleavage of 0.9. A117G U131C showed a self-cleavage of 1.15. In the case of U120C G136A, the self-cleavage is reported as 1.65. A116U A118G showed a self-cleavage of 0.07. A116C U131C showed a self-cleavage of 0. Work on C112U U122A yielded a self-cleavage of 0.01. With C113A U120C the self-cleavage was 0.02. U124C A140G showed a self-cleavage of 0.57. In the case of A114U U127C, the self-cleavage is reported as 0.03. In the case of A118C U132C, the self-cleavage is reported as 0.57. A114U U124G gave a self-cleavage of 0.06. A114G U130C gave a self-cleavage of 0.38. Work on A126U U139A yielded a self-cleavage of 1.99. For U124G A125G, the self-cleavage was 0.6. Variant U124G A125U has a self-cleavage of 1.25. G115A C128U showed a self-cleavage of 0.06. With A111U A126C the self-cleavage was 0.06. In the case of U122C A126U, the self-cleavage is reported as 1.12. Work on A118U U120A yielded a self-cleavage of 1.68. A118U U130C gave a self-cleavage of 0.4. In the case of A116G A118G, the self-cleavage is reported as 0.22. A116U A134U gave a self-cleavage of 0.33. For C112A A140G, the self-cleavage was 0.02. Variant U124C U127C has a self-cleavage of 0.84. Variant A116G U122C has a self-cleavage of 0.4. A110G A126G gave a self-cleavage of 0.1. Variant A111G A140G has a self-cleavage of 0. With A117U A129U the self-cleavage was 0.62. For A110G U139C, the self-cleavage was 0.17. Work on A116G A134G yielded a self-cleavage of 0.59. A116G A134C showed a self-cleavage of 0.7. A114G U132C gave a self-cleavage of 0.24. For A114G U132A, the self-cleavage was 0.7. A114G U131C showed a self-cleavage of 0.15. For A110C U122G, the self-cleavage was 0.56. Variant A111C A140G has a self-cleavage of 0.01. In the case of A126G U132C, the self-cleavage is reported as 1.07. A118U U131G gave a self-cleavage of 0.62. Variant A114U A117G has a self-cleavage of 0.04. C113A A114G gave a self-cleavage of 0.01. U120C U131C showed a self-cleavage of 0.85. A117G U127A showed a self-cleavage of 2.7. Variant A116G U132C has a self-cleavage of 0.54. A110G A135G gave a self-cleavage of 0.12. With A118G A126G the self-cleavage was 0.83. For U120G U130A, the self-cleavage was 1.2. For A114C U127C, the self-cleavage was 0. With U122C U133C the self-cleavage was 2.05. Variant U122C U133A has a self-cleavage of 0.52. Work on G123A A126G yielded a self-cleavage of 1.34. For A117G A118U, the self-cleavage was 1.72. In the case of A117G A118G, the self-cleavage is reported as 0.59. A111U A114U gave a self-cleavage of 0.02. A110G A117U showed a self-cleavage of 0.06. A114G U120A gave a self-cleavage of 0.2. Variant U122C A125C has a self-cleavage of 0.72. Work on U122C A125G yielded a self-cleavage of 0.38. Work on A114C A125G yielded a self-cleavage of 0.01. With A116U U133C the self-cleavage was 0.21. A125U A140G showed a self-cleavage of 1.42. Work on A116U yielded a self-cleavage of 0.23. For A116C, the self-cleavage was 0.13. Variant A116G has a self-cleavage of 0.47. In the case of A118U A125G, the self-cleavage is reported as 0.86. A117U U133C showed a self-cleavage of 1.23. Work on A116C A117G yielded a self-cleavage of 0.04. For G119A U122C, the self-cleavage was 1.11. U124C U132C gave a self-cleavage of 1.13. In the case of G115A U132G, the self-cleavage is reported as 0.01. Variant A111U U124C has a self-cleavage of 0.08. Work on G119A A126G yielded a self-cleavage of 1.98. Variant A125G A140G has a self-cleavage of 0.69. Work on U120C A126U yielded a self-cleavage of 0.57. Work on A110U U122C yielded a self-cleavage of 0.92. With A110G U124A the self-cleavage was 0.09. A110G U124C gave a self-cleavage of 0.14. A118G U133C showed a self-cleavage of 1.23. For A114U U132C, the self-cleavage was 0.02. A114U U132A gave a self-cleavage of 0.08. Variant A118G U139G has a self-cleavage of 0.07. With U122A A125U the self-cleavage was 2.05. A114G A116U showed a self-cleavage of 0.05. C121A U132A showed a self-cleavage of 1.42. U122C U127C showed a self-cleavage of 0.25. Work on U122A A135G yielded a self-cleavage of 2.11. Variant G119C U132C has a self-cleavage of 1.13. A118U U122A gave a self-cleavage of 1.08. For U127A, the self-cleavage was 1.6. Variant U122C U132C has a self-cleavage of 0.49. Work on U122C U132A yielded a self-cleavage of 0.43. For A117G G138C, the self-cleavage was 2.13. A126U U132C gave a self-cleavage of 1.21. With A111U U139A the self-cleavage was 0.16. In the case of A110C A117G, the self-cleavage is reported as 0.64. With A110G A111G the self-cleavage was 0.02. Work on A110G A140C yielded a self-cleavage of 0.14. In the case of A110G A140G, the self-cleavage is reported as 0.15. For U124A U127C, the self-cleavage was 0.65. Work on A111G U124G yielded a self-cleavage of 0.01. For U120C U130A, the self-cleavage was 0.71. For U122A U133A, the self-cleavage was 1.43. With U122A U133C the self-cleavage was 2.07. For U124C U131C, the self-cleavage was 0.8. With A117U A118G the self-cleavage was 0.97. A117U A118C showed a self-cleavage of 0.51. In the case of A111U U120C, the self-cleavage is reported as 0.03. U124C U130C gave a self-cleavage of 0.57. With U124C U130G the self-cleavage was 0.87. A110U A135G gave a self-cleavage of 1.63. A111G C112G gave a self-cleavage of 0. For A111C U132C, the self-cleavage was 0.01. With A114U A125G the self-cleavage was 0. Work on A111U A129G yielded a self-cleavage of 0.19. Work on A117G U120C yielded a self-cleavage of 0.23. With A110G G136A the self-cleavage was 0.09. A117G U122C gave a self-cleavage of 1.05. In the case of A114G G138C, the self-cleavage is reported as 0.31. Work on A126G U131G yielded a self-cleavage of 1.23. Variant A116G A126U has a self-cleavage of 1.04. For A110U A118G, the self-cleavage was 0.72. Variant A110U A118U has a self-cleavage of 0.75. For A126U A135G, the self-cleavage was 1.24. A114C U122A showed a self-cleavage of 0.04. A114C U122G showed a self-cleavage of 0.01. U122C A135U gave a self-cleavage of 1.06. Variant U122C A135G has a self-cleavage of 1.24. Variant A116G U131G has a self-cleavage of 0.3. A116G U131C gave a self-cleavage of 0.27. In the case of A111G U127A, the self-cleavage is reported as 0.01. In the case of A111G U127G, the self-cleavage is reported as 0.02. A111G U127C showed a self-cleavage of 0.01. A126C U130C gave a self-cleavage of 0.47. Work on C112A A125G yielded a self-cleavage of 0.01. Variant U120C A129G has a self-cleavage of 0.63. Variant A116G U139C has a self-cleavage of 1.17. In the case of U124C A135G, the self-cleavage is reported as 1.33. U124C A135C showed a self-cleavage of 0.06. With A110U A114U the self-cleavage was 0.04. For A110U A114G, the self-cleavage was 0.49. For A118G A125U, the self-cleavage was 1.22. In the case of A118G A125G, the self-cleavage is reported as 0.1. For U127A A140U, the self-cleavage was 1.25. In the case of A110C A125G, the self-cleavage is reported as 0.11. With C112U A116G the self-cleavage was 0. Variant C113G has a self-cleavage of 0.01. In the case of C113U, the self-cleavage is reported as 0.08. C113A showed a self-cleavage of 0.03. For U122C G123A, the self-cleavage was 1.6. For A116U U131C, the self-cleavage was 0.11. Variant C113A A140G has a self-cleavage of 0.
